From patent US20210147536A1 (MAB VENTURE BIOPHARM, published 2021) come the findings set out here.

T1: human LAG-3-6*His tag recombinant fusion protein (human, UniProt P18627 23-450, biotin-labelled in panning and in Example 9)
T1 construct: Bought protein; also called hLAG-3-6*his tag recombinant protein; human LAG-3-his tag recombinant fusion protein
T1 sequence: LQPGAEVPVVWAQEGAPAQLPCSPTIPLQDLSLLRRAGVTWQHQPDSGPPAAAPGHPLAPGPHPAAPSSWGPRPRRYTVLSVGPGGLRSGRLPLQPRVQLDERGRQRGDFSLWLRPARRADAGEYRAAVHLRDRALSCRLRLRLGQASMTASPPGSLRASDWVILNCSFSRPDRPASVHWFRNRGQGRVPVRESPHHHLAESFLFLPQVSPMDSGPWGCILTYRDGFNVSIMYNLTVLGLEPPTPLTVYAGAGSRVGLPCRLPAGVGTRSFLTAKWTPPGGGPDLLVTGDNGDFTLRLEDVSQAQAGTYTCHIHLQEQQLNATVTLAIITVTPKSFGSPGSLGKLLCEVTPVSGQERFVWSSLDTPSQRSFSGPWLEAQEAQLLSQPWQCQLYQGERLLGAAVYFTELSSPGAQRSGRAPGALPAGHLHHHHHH

T2: human LAG-3 on the cell surface (human, UniProt P18627 23-525)
T2 construct: whole, on cells; also called cells expressing the human LAG-3
T2 sequence (looked up): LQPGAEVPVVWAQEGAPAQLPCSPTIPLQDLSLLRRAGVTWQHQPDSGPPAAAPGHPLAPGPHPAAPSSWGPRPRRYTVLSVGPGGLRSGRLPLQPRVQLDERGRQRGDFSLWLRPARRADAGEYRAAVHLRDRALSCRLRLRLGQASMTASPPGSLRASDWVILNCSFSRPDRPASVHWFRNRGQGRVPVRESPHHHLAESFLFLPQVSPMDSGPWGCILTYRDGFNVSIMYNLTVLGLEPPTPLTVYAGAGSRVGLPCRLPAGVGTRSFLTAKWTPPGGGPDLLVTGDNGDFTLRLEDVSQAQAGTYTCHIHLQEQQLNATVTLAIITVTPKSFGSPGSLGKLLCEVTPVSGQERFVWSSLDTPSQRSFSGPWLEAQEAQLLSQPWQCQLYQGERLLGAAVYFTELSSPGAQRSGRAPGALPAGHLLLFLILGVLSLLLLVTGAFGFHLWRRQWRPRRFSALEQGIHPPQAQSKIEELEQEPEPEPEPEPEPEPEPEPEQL

B1: IgG4 monoclonal antibody 11487 (antibody, V domains shown)
VH: QVQLVESGGGLVQPGRSLRLSCVASGFTFDDHAMHWVRQTPEKGLEWVSGISWNGGDIRYADSVKGRFIISRDNAKNSLHLQMNSLRGEDTAVYYCARDGGYSVLRAFDIWGQGTTVTVSS
VL: QSVLTQPPSVSGAPGQRVTISCTGSSSNIGAGYDVHWYQQLPGTAPKLLIYGNSNRPSGVPDRFSGSKSGTSASLAITGLQAEDEADYYCQSYDSSLSGWVFGGGTQLIILG
notes: IgG4, lambda
B2: IgG4 monoclonal antibody 11471 (antibody, V domains shown)
VH: RVRLQESGPGLVKPSQTLSLTCTVSGGSISSSNWWSWVRQPPGKGLEWIGEIYHSGSTNYNPSLKSRVTISVDKSKNQFSLKLSSVTAADTAVYYCARDRAIRDAFDIWGQGTTVTVSS
VL: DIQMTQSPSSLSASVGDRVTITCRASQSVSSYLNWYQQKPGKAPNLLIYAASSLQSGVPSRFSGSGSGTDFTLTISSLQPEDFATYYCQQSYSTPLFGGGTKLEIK
notes: IgG4, kappa
B3: IgG4 monoclonal antibody 11446 (antibody, V domains shown)
VH: EVQLVESGGGVVQPGRSLRLSCAASGFTFSNYAMHWVRQAPGKGLEWVAVISYDGSDKYYADSVKGRFTISRDNSKNTLYLQMKSLRAEDTAVYYCARSIGFLESDAFDIWGQGTTVTVSS
VL: DIVLTQSPSSLSASVGDRVTITCQASHGISNFLNWYQQKPGKAPKLLIYDASTLETGVPSRFSGSGSGTDFRFTISSLQPEDIATYYCQQFDNLPITFGQGTRLEIK
notes: IgG4, kappa
B4: IgG4 monoclonal antibody 11455 (antibody, V domains shown)
VH: EVHLVESGGGVVQPGRSLRLSCAASGFTFSNYAMHWVRQAPGKGLEWVAVISYDGNNQYYADSVKGRFTISRDNSKNTLYLQMNSLRAEDTAVFYCARSIGFLESDAFDIWGQGTTVTVSS
VL: EIVLMQSPGTLSLSPGERATLSCRASQSFSDGSLAWYQQKPGQPPRLVIYDASKRATGIPDRFSGSRSGTEFTLTISSLQSEDFAVYSCQQYYNWPPTFGQGTRLEIK
notes: IgG4, kappa
B5: scFv single chain antibody 11455 (scFv)
scFv: EVHLVESGGGVVQPGRSLRLSCAASGFTFSNYAMHWVRQAPGKGLEWVAVISYDGNNQYYADSVKGRFTISRDNSKNTLYLQMNSLRAEDTAVFYCARSIGFLESDAFDIWGQGTTVTVSSGGGGSGGGGSGGGGSGGGGASEIVLMQSPGTLSLSPGERATLSCRASQSFSDGSLAWYQQKPGQPPRLVIYDASKRATGIPDRFSGSRSGTEFTLTISSLQSEDFAVYSCQQYYNWPPTFGQGTRLEIK
notes: From phagemid pCLS1.0, which adds a C-terminal Myc-His tag
B6: scFv single chain antibody 11449 (scFv)
scFv: QVQLVQSGAEVKKPGASVKVSCKASGYTFTSYGISWVRQAPGQGLEWMGWISAYNGNTNYAQKLQGRVTMTTDTSTSTAYMELRSLRSDDTAVYYCARDEGANWGDAFDIWGQGTMVTVSSGGGGSGGGGSGGGGSGGGGASQLVLTQSPSASGTPGQRVTISCSGSSSNIGNNAVNWYQQLPGTAPKILIYSNNQRPSGVPDRFSGSKSGASASLAISGLQSEDESDYYCAAWDDSLNAVVFSGGTELTVL
notes: as for B5
B7: scFv single chain antibody 11446 (scFv)
scFv: EVQLVESGGGVVQPGRSLRLSCAASGFTFSNYAMHWVRQAPGKGLEWVAVISYDGSDKYYADSVKGRFTISRDNSKNTLYLQMKSLRAEDTAVYYCARSIGFLESDAFDIWGQGTTVTVSSGGGGSGGGGSGGGGSGGGGASDIVLTQSPSSLSASVGDRVTITCQASHGISNFLNWYQQKPGKAPKLLIYDASTLETGVPSRFSGSGSGTDFRFTISSLQPEDIATYYCQQFDNLPITFGQGTRLEIK
notes: as for B5
B8: scFv single chain antibody 11454 (scFv)
scFv: EVQLLQSGGGLVQPGGSLRLSCAASGFTFSSYEMNWVRQAPGKGLEWVSYISSSGSTIYYADSVKGRFTISRDNAKNSLYLQMNSLRAEDTAVYYCARVGLLDAFDIWGQGTMVTVSSGGGGSGGGGSGGGGSGGGGASQSVLTQPPSVSAAPGQKVTISCSGSSSNIGNNYVSWYQLIPEKAPRLLIYDDDKRPSGIPDRFSGSQSGTSATLGITGLQTGDEADYFCGTWDNSLSGAVFGGGTQLIIL
notes: as for B5
B9: scFv single chain antibody 11507 (scFv)
scFv: QVQLQESGPGLVKPSETLSLTCTVSGYSISSGYYWGWIRQPPGKGLEWIGSIYHSGSTYYNPSLKSRVTISVDTSKNQFSLKLSSVTAADTAVYYCARDLQDWFDPWGQGTLVTVSSGGGGSGGGGSGGGGSGGGGASLAVLTHAPSASGTPGQRVTISCSGSKSNIGSNSVNWYQHLPGTAPKLLIHTNDQRPSGVPDRFAGSKSGTSASLTISGLRPEDEADYYCATWDDSMSGPVFGGGTELTVL
notes: as for B5
B10: scFv single chain antibody 11452 (scFv)
scFv: EVQLLESGAEVKKPGASVKVSCKASGYTFTSYGISWVRQAPGQGLEWMGWISAYNGNTNYAQKLQGRVTMTTDTSTSTAYMELRSLRSDDTAVYYCARDGWWELLRPDDAFDIWGQGTTVTVSSGGGGSGGGGSGGGGSGGGGASQLVLTQSPSVSVSPGQTASITCSGDKLGDKYAYWYQQKPGQAPVLVIYYDSDRPSGIPERFSGSNSGNTATLTISRVEAGDEADYYCQVWDSSSDQVVFGGGTQLTVL
notes: as for B5
B11: scFv single chain antibody 11465 (scFv)
scFv: QVQLVQSGAEVKKPGSSVKVSCKTSGGTFSNYAINWVRQAPGQGLEWMGVIIPMFGPANYVQKFQGRVTITADETTSTAYMELSSLRSEDTAIYYCARDLAPAGFYGMDVWGQGTTVTVSSGGGGSGGGGSGGGGSGGGGASDIVLTQSPSSVSASVGDRVTITCRASQGISNWLAWYQQKPGKAPKLLIYAASSLQSGVPSRFSGSRSGTDFTLTISSLQPEDFATYYCQQARNFPFTFGQGTRLEIK
notes: as for B5
B12: scFv single chain antibody 11451 (scFv)
scFv: QVQLQESGPGLVKPSETLSLTCTVSGGSISSGGYYWGWIRQPPGKGLEWIGSIYYSGRTYYNPSLKSRVTISVDTSRNQFSLKLSSLTAADTAVYYCARTGGGAYGFDYWGQGTLVTVSSGGGGSGGGGSGGGGSGGGGASQPVLTQPHSVSESPGKTVTISCTRSSGNIASNYVQWYQKRPGSPPTTVIYEDNQRPSGVPDRFSASIDSSSNSASLTISGLRTEDEADYYCQSYDTILGYVFGGGTQLTAL
notes: as for B5
B13: scFv single chain antibody 11487 (scFv)
scFv: QVQLVESGGGLVQPGRSLRLSCVASGFTFDDHAMHWVRQTPEKGLEWVSGISWNGGDIRYADSVKGRFIISRDNAKNSLHLQMNSLRGEDTAVYYCARDGGYSVLRAFDIWGQGTTVTVSSGGGGSGGGGSGGGGSGGGGASQSVLTQPPSVSGAPGQRVTISCTGSSSNIGAGYDVHWYQQLPGTAPKLLIYGNSNRPSGVPDRFSGSKSGTSASLAITGLQAEDEADYYCQSYDSSLSGWVFGGGTQLIIL
notes: as for B5
B14: scFv single chain antibody 11506 (scFv)
scFv: QLQLQESGPGLVKSSQTLSLTCSVSGDSISSGKYYWTWIRQPAGKGLEWLGRIHSSGFAQYNPSLKGRLTISVDTRKNEFSLKMTSVTAADTAVYYCARGGWNDPFDSWGQGTLVTVSSGGGGSGGGGSGGGGSGGGGASDIQMTQSPDSLAVSLGERATINCKSSQSVLYSSNNKNYLAWYQQKPGQPPKLLIYWASTRESGVPDRFSVSGSGTDFTLTISSLHAEDVAVYYCQQYYSTPITFGPGTKLEIK
notes: as for B5
B15: scFv single chain antibody 11458 (scFv)
scFv: RVRLQESGPGLVKPSETLSLTCTVSGGSISSSSYYWGWIRQPPGKGLEWIGSIYYSGSTYYNPSLKSRVTISVDTSKNQFSLKLSSVTAADTAVYYCAREYSGYDGAYVGYWGQGTLVTVSSGGGGSGGGGSGGGGSGGGGASQSVLTQPPSVSGAPGQRVTISCTGSNSNIRAGYDVHWYQQLPGTVPKLLIYGNSNRPSGVPDRFSGSKSGTSASLAISGLQSEDEGNYFCATWDDSLWGWVFGAGTELTVL
notes: as for B5

In one assay the target is T1, human LAG-3-6*His tag recombinant …. The assay is described as follows: ELISA, human LAG-3-6*His coated at 1 µg/ml, IgG4 titrated, anti-hIgG HRP. For orientation: In an ELISA, binding on a coated surface is turned into a signal by an enzyme label.
A word on the EC50: it is the midpoint of the concentration-response curve. Regarding B1, the EC50 was 3.35 µg/mL.
Turning to B2, the EC50 is 22.3 µg/mL.
As for B3, the concentration giving a half-maximal response (EC50) came to 85.6 µg/mL.
B4: the EC50 amounted to 83.1 µg/mL.

A further assay concerns the target T2, human LAG-3 on the cell surface. Kind of assay: flow cytometry, soluble scFv supernatant on activated human CD4+ T cells, anti-His-PE. (In general: Flow cytometry measures light scatter and fluorescence of single cells or particles in a stream.)
Take B5: the binding result is reported as “binds”.
In the case of B6, the binding result is reported as “binds”.
For the molecule B7, the binding result is reported as “binds”.
On the same count and under the same terms, then B8, with “binds”; and B9, with “binds”.
Take B10: the binding result is “binds”.
Consider B11, for which the binding result is on record as “binds”.
Regarding B12, the binding result is recorded as “binds”.
In the case of B13, the binding result is reported as “binds”.
On the same count and under the same terms, then B14, with “binds”.
The same measure, in the same setting: next, B15: “binds”.
